This passage reports Kd results from patent publication US20250019422A1 (MAX PLANCK GESELLSCHAFT ZUR F RDERUNG DER WISSENSCHAFTEN E V, published 2025).

B1: Re32D03 (VHH)
VHH: QVQLVESGGGLVQPGGSLRLSCAISGITLDYYAVGWFLQAPGKEREGISCMRNWDGRTVYAPSVKGRFTISSDNAKKMVYLEMDNLKSEDTGVYYCAAGPLPPGISCRIPTPLGYDDWGQGTQVTVSS
B2: Re32F02 (VHH)
VHH: QVQLVESGGGLVSPGGSLKLSCAASGLTLDYYGIGWFRQVPGKEREGVSCLGVPDNRTLYAPSVKGRFTISRDNAKNTYYLEMNSLNPEDSAVYYCAAGPVVPGHMCRIPTPLGYDYWGQGTLVTVSS
B3: Re5D06R15 (VHH)
VHH: QVQLVESGGGLVQPGGSLRLSCAASGITLDYYAMGWFREAPGKEREGVARIRNSDGSTNYADSVKGRFTMSRDNAKDTYYLQMNSLEPEDTADYYCAYGPLTKYGSSWYWPYEYDYWGQGTQVTVSS
B4: Re31A08 (VHH)
VHH: QVQLVESGGGLVQPGGSLRLSCAASGITLDYYSIGWFRQAPGKEREGVSCTSSRDDSTDYADSVKGRFTISRDNAKNSVYLQMNSLNPEDTAVYYCALTPATYYSGRYYFQCPPHGMDYWGKGTLVTVSS
B5: Re32C08 (VHH)
VHH: QVQLVESGGGLVQPGGSLRLSCETSGITLDYYAIGWFLQAPGKEREGVACMRNWDGSTVYAPSVKGRFTISRDNDKKAAYLEMNSLKSEDTGVYYCAAGPLPPGHSCRIPTPLGYDDWGQGTQVTVSS
B6: Re32A10 (VHH)
VHH: B5 VHH with E23A, A49S, N53S, W54S, D75A, A78M, A79V, H105T
B7: Re32E06 (VHH)
VHH: B5 VHH with V59L, A79V
B8: Re32G01 (VHH)
VHH: B5 VHH with E44D, V59L, N74A, K77E, A78V
B9: Ma6F06 (VHH)
VHH: B5 VHH with E23A, A40V, V59L, N74A, K77E, A78V
B10: Re32B02 (VHH)
VHH: B5 VHH with E23A, A49S, N53S, W54S, D75A, A78M, A79V, H105T
B11: Re6H06 (VHH)
VHH: QVQLVESGGGLVQPGGSLRLSCAASGVTLDYYAIGWFRQAPGKEREGVSCTSSSDGSTYYADSVKGRFTISRDNAKNTVYLQMNSLKPEDTGVYYCAVVPQTYYGGKYYSQCTANGMDYWGKGTLVTVSS
B12: Re31A12 (VHH)
VHH: QVQLVESGGGLVQSGGSLRLSCLTSGVTLDYYAIGWFRQAPGKEREGVSCTSSSDGSTNYSDSVKGRFIISRDNAKNTVYLQMNSLKPEDTAVYYCAVTPATYYGGRYYFQCPYHDMHYWGKGTLVTVSS
B13: Ma2E06 (VHH)
VHH: QVQLVESGGDLVQPRGSLRLSCAASGITLDYYAIGWFRQAPGKEREGVSYISNTNDKTDYADSVKGRFTISRDNAENTVFLQMNSLQPEDTAVYYCATVPGTYYGGRWYYTWHPEAVRYWGKGTQVTVSS
notes: also called Ma02E06
B14: Re9B09 (VHH)
VHH: QVQLVESGGGLVQPGGSLRLSCAASGFTLDYYAIGWFRQAPGKEREGVSRISSSDGSTDYADSVKGRFTISRDNAKNTVYLQMNSLKPEDTAVYYCATVPGTYYSGNWYYTWHPEAVDYWGKGTQVTVSS
notes: also called ReB09
B15: Re5D06 (VHH)
VHH: B3 VHH with M34I, E39Q, A49S, N53S, D77N, Y79V, E87K, D93V

In general, Kd refers to the constant that tells how readily two partners part at equilibrium. The low end stands for higher affinity, the high end for lower affinity.

Substitutions are numbered along the chain they refer to. Where only a bound is given, the exact number is not on record here.

The first assay concerns the target T1, wt_RBD-AviHis (SARS-CoV-2 (original Wuhan strain)). As to the kind of experiment: BLI (Octet), biotinylated RBD on streptavidin biosensors, VHH in solution. (In general: In BLI a coated tip is dipped into the sample, and binding shifts an interference pattern.)
In the case of B1, the Kd is no more than 0.01 nM. Regarding B2, the Kd was no more than 0.01 nM.

Take B3: the Kd is no more than 0.01 nM. The same measure, in the same setting: then B4, with 0.06 nM. Same read-out and setting: the result for B5 reads no more than 0.01 nM; that for B6, 0.004 nM.

B7: the dissociation constant Kd was no more than 0.01 nM. Same read-out and setting: then B8, with 0.016 nM; and B9, with no more than 0.01 nM. Still for that read-out and setting: then B10, with no more than 0.01 nM; and B11, with no more than 0.01 nM; and B12, with 0.12 nM. The same measure, in the same setting: then B13, with 0.04 nM; and B14, with no more than 0.01 nM.

The target of another assay is T1, wt_RBD-AviHis. The experiment in a line: BLI: biotinylated wild type RBD immobilised, VHH in solution, mass transport fit.
B15 displayed a Kd of no more than 0.01 nM. On the same count and under the same terms, then B11, with no more than 0.01 nM.

A further assay has as its target T1, wt_RBD-AviHis. Described as above. This is another data set of the same source.
In the case of B1, the Kd is no more than 0.01 nM.

On to B14, for which the Kd amounted to 0.03 nM.
